We go through one molecule from patent KR20160093503A (dated 2016).

Test [1] concerns the target T1, DRS (Aspartyl-tRNA synthetase), purified recombinant (UniProt P14868 1-501, limits assumed).
T1 construct: also called 아스파틸-tRNA 합성효소
T1 sequence (looked up): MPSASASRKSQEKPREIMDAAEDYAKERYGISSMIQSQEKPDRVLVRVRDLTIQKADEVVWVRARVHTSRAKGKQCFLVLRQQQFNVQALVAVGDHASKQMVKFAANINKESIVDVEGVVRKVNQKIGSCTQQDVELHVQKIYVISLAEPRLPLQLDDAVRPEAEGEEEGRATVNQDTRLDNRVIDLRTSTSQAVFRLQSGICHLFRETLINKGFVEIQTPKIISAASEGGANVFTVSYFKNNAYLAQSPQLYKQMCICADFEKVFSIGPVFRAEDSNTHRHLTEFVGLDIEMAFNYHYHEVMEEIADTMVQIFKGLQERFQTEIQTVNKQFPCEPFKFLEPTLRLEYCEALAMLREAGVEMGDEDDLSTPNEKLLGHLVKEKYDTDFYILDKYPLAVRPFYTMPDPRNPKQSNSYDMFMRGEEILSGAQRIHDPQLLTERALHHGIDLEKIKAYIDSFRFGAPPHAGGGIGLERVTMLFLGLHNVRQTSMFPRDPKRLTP
Briefly: Luminex multiplex bead assay, antigen coupled to beads, relative to CRS.

The target of test [2] is T2, EPRS WHEP domain (Glutamyl-prolyl tRNA synthetase), purified recombinant (UniProt P07814 749-956, limits assumed).
T2 construct: domain: WHEP domain; also called 글루타밀-프로릴-tRNA 합성효소
T2 sequence (looked up): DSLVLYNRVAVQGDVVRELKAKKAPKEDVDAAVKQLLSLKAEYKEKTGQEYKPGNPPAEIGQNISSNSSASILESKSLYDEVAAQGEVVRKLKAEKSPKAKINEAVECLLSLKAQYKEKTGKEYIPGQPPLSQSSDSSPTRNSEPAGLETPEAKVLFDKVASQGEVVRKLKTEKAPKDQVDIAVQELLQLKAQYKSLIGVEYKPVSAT
Described as above.

Test [3] deals with T3, WRS (Tryptophanyl-tRNA synthetase), purified recombinant (UniProt P23381 1-471, limits assumed).
T3 construct: also called 트립토파닐-tRNA 합성효소
T3 sequence (looked up): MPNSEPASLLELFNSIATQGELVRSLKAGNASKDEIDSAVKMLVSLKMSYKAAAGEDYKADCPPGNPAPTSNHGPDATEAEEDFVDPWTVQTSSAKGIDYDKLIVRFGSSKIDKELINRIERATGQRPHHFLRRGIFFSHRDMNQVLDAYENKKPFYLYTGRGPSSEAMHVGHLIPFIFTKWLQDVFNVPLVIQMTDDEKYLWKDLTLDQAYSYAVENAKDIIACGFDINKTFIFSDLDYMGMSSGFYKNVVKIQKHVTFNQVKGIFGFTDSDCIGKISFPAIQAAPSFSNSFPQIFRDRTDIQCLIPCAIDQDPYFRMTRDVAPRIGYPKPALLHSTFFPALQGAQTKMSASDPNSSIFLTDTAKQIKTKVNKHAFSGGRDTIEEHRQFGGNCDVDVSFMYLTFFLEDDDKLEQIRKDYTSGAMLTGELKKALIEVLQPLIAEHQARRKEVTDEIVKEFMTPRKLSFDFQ
Described as above.

In test [4] the target is T4, HRS (Histidyl-tRNA synthetase), purified recombinant (UniProt P12081 1-509, limits assumed).
T4 construct: also called 히스티딜-tRNA 합성효소
T4 sequence (looked up): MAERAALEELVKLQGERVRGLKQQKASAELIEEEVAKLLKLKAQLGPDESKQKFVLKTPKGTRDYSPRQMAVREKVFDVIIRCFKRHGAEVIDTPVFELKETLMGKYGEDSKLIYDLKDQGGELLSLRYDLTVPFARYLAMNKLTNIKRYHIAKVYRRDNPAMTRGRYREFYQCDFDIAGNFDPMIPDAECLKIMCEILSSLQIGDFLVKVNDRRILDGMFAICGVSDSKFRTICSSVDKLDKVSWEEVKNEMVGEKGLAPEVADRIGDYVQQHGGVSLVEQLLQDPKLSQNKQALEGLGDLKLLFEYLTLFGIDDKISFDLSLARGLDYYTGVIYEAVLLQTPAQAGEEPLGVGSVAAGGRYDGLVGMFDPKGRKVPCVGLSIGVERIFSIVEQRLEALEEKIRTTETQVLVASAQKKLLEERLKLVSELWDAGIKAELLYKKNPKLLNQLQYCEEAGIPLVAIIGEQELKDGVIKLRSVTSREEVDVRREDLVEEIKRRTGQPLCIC
The description is as above.

Test [5] has as its target T5, AIMP1 (Aminoacyl-tRNA-synthetase-interacting multifunctional protein 1), purified recombinant (UniProt Q12904 1-312, limits assumed).
T5 construct: also called AIMP1(p43); p43
T5 sequence (looked up): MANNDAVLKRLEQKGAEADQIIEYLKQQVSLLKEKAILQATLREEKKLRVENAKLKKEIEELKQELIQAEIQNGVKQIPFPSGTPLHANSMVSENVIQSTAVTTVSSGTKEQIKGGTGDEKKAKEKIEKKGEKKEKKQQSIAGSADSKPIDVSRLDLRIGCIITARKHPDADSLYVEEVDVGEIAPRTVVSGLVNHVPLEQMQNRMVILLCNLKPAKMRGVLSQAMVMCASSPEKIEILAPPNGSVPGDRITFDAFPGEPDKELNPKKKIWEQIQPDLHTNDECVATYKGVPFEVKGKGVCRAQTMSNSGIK
Described as above.

The target in test [6] is T6, AIMP3 (Aminoacyl-tRNA-synthetase-interacting multifunctional protein 3), purified recombinant (UniProt O43324 1-174, limits assumed).
T6 construct: also called AIMP3(p18); p18
T6 sequence (looked up): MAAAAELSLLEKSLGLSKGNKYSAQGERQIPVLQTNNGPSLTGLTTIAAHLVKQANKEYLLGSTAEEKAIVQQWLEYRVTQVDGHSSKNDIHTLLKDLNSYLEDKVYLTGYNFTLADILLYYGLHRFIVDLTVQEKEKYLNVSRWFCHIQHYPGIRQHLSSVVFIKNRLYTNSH
Described as above.

In test [7] the target is T7, CRS (Cysteinyl-tRNA synthetase), purified recombinant antigen (human, UniProt P49589 1-748, limits assumed).
T7 construct: also called CRS 항원; 재조합 CRS 표준물질
T7 sequence (looked up): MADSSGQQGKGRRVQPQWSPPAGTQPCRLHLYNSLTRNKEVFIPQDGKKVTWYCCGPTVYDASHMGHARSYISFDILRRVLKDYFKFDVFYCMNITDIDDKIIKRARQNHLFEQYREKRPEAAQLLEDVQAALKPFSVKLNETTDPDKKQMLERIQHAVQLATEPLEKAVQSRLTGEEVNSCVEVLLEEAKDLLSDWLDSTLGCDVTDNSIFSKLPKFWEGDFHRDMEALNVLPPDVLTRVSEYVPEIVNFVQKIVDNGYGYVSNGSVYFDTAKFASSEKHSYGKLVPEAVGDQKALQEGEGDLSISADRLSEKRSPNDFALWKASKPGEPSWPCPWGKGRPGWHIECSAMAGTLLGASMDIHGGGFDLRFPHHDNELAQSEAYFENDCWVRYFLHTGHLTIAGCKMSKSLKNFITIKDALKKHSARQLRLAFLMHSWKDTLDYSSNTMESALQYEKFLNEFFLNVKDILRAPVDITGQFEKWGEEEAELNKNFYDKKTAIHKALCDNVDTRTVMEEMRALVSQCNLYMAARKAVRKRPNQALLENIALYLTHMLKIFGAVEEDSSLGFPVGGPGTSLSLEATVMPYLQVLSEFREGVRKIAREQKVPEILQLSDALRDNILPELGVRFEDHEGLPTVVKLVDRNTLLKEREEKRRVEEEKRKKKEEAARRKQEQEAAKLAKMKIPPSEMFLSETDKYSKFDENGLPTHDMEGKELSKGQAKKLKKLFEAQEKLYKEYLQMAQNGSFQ
The test is described as follows: SPR (ProteOn XPR36), CRS amine-coupled on GLC chip, scFv 500-30 nM as analyte, 25 C.

B1: anti-CRS scFv Biocon-K1 (scFv)
scFv: EVQLLESGGGLVQPVGSLRLSCAASGFTFSNYAMSWVRQAPGKGLEWVSWIYSKGRSTYYGDSAKGRFTISRDNSKNTLYLQMNSLRAEDTAVYYCAKRDNAFDYWGQGTLVTVSSGGGGSGGGGSGGGGSQSVLTQPPSASGTPGQRVTISCSGSSSNIGNNYVYWYQQLPGTAPKLLIYADSQRPSGVPDRFSGSKSGTSASLAISGLRSEDEADYYCGAWDSSLNGYVFGGGTKLTVL
notes: It was expressed from pComb3X in the E. coli periplasm, purified on Ni-NTA and detected with anti-HA; Human VH3-23/VL1g framework; also called 항 CRS scFv 항체; 본 발명의 항체
Usually Kd stands for the equilibrium constant for the complex coming apart. With B1, the “교차 반응성 (cross-reactivity)” value in test [1], in test [2], in test [3], in test [4], in test [5] and in test [6] was not above 10% throughout. Moreover, in test [7], the Kd worked out at 60 nM.
